Residue numbers refer to the chain shown, from its start.
B1: BIIB-9-440 (antibody, V domains shown)
VH: QLQLQESGPGLVKPSETLSLTCTVSGGSISSSDYYWGWIRQPPGKGLEWIGSIYYSGSTYYNPSLKSRVTISVDTSKNQFSLKLSSVTAADTAVYYCARSPRHKVRGPNWFDPWGQGTLVTVSS
VL: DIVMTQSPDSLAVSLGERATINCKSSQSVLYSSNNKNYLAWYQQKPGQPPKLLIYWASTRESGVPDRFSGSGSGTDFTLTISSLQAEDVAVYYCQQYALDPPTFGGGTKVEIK
B2: BIIB-9-1264 (antibody, V domains shown)
VH: QVQLVQSGAEVKKPGASVKVSCKASGYTFTSYYMHWVRQAPGQGLEWMGIINPSGGSTSYAQKFQGRVTMTRDTSTSTVYMELSSLRSEDTAVYYCARDGDSSVYAFDYWGQGTLVTVSS
VL: DIQMTQSPSSLSASVGDRVTITCQASQDITNYLNWYQQKPGKAPKLLIYDASNLETGVPSRFSGSGSGTDFTFTISSLQPEDIATYYCQQVDDYPFTFGGGTKVEIK
B3: BIIB-9-569 (antibody, V domains shown)
VH: QVQLVQSGAEVKKPGASVKVSCKASGYTFTSYYMHWVRQAPGQGLEWMGIINPSGGSTSYAQKFQGRVTMTRDTSTSTVYMELSSLRSEDTAVYYCARDGSGYSPYSFDPWGQGTLVTVSS
VL: B2 VL with T30S, E55A, V91A, Y94F
B4: BIIB-9-883 (antibody, V domains shown)
VH: QVQLVQSGAEVKKPGASVKVSCKASGYTFTSYYMHWVRQAPGQGLEWMGIINPSGGSTSYAQKFQGRVTMTRDTSTSTVYMELSSLRSEDTAVYYCARDGRLSYTWDRWGQGTLVTVSS
VL: B2 VL with V91A, D93H, Y94F
B5: BIIB-9-621 (antibody, V domains shown)
VH: QLQLQESGPGLVKPSETLSLTCTVSGGSISSSSYYWGWIRQPPGKGLEWIGSIYYSGSTYYNPSLKSRVTISVDTSKNQFSLKLSSVTAADTAVYYCARDGSISGSRFDYWGQGTLVTVSS
VL: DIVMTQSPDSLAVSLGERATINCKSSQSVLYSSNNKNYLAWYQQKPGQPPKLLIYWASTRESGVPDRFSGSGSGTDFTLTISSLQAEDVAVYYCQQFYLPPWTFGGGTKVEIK
B6: BIIB-9-573 (antibody, V domains shown)
VH: QLQLQESGPGLVKPSETLSLTCTVSGGSISSSSYYWGWIRQPPGKGLEWIGSIYYSGSTYYNPSLKSRVTISVDTSKNQFSLKLSSVTAADTAVYYCARESKTKGYLDLWGRGTLVTVSS
VL: EIVLTQSPGTLSLSPGERATLSCRASQSVSSSFLAWYQQKPGQAPRLLIYGASSRATGIPDRFSGSGSGTDFTLTISRLEPEDFAVYYCQQSHSPPYTFGGGTKVEIK
B7: BIIB-9-425 (antibody, V domains shown)
VH: QVQLVQSGAEVKKPGASVKVSCKASGYTFTSYYMHWVRQAPGQGLEWMGIINPSGGSTSYAQKFQGRVTMTRDTSTSTVYMELSSLRSEDTAVYYCAREPTWDVAYDYWGQGTLVTVS
VL: B6 VL with S32D, F33Y, S92Y, H93D, P95H
B8: BIIB-9-480 (antibody, V domains shown)
VH: QVQLQESGPGLVKPSETLSLTCAVSGYSISSGYYWGWIRQPPGKGLEWIGSSYHSGSTYYNPSLKSRVTISVDTSKNQFSLKLSSVTAADTAVYYCARDQQDYGAFDIWGQGTMVTVSS
VL: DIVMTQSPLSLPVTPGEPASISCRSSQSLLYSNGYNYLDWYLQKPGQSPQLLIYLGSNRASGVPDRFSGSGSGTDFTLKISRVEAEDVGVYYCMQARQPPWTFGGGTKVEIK
B9: BIIB-9-439 (antibody, V domains shown)
VH: QVQLVQSGAEVKKPGASVKVSCKASGYTFTSYYMHWVRQAPGQGLEWMGIINPSGGSTTYAQKFQGRVTMTRDTSTSTVYMELSSLRSEDTAVYYCAREATESYYYMDVWGKGTTVTVSS
VL: EIVMTQSPATLSLSPGERATLSCRASQSVSSYLAWYQQKPGQAPRLLIYDSSNRATGIPARFSGSGSGTDFTLTISSLEPEDFAVYYCQQRDNWPFTFGGGTKVEIK
B10: BIIB-9-1267 (antibody, V domains shown)
VH: B2 VH with G100H, D101G, S102W, S103A, V104I, A106G, F107M, Y109V, L115T
VL: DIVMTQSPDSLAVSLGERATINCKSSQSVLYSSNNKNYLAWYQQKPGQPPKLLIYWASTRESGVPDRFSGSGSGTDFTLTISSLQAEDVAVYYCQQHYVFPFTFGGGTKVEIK
B11: BIIB-9-445 (antibody, V domains shown)
VH: B4 VH with M34I, G100V, R101G, L102Q, S103D, T105W, W106F, R108L, Q111R
VL: B9 VL with L13V, Y32N, D50S, S51A, N53T, D70E, E79Q, P80S, R91Y, W94F
B12: BIIB-9-587 (antibody, V domains shown)
VH: B9 VH with T59S, E99G, A100P, T101P, E102G, S103Y, Y104E
VL: DIQMTQSPSSVSASVGDRVTITCRASQGISSWLAWYQQKPGKAPKLLIYAASSLQSGVPSRFSGSGSGTDFTLTISSLQPEDFATYYCQQADSFPFTFGGGTKVEIK
B13: BIIB-9-888 (antibody, V domains shown)
VH: QVQLVQSGAEVKKPGASVKVSCKASGYTFTSYYMHWVRQAPGQGLEWMGIINPSGGSTSYAQKFQGRVTMTRDTSTSTVYMELSSLRSEDTAVYYCARGPTDSSGYLDMDVWGKGTTVTVSS
VL: B9 VL with L13V, Y32N, D50G, S51A, N53T, D70E, E79Q, R91A, D92F, F96P
B14: BIIB-9-885 (antibody, V domains shown)
VH: QVQLVQSGAEVKKPGASVKVSCKASGYTFTSYYMHWVRQAPGQGLEWMGIINPSGGSTSYAQKFQGRVTMTRDTSTSTVYMELSSLRSEDTAVYYCAREGPMLDYPTYSNWFDPWGQGTLVTVSS
VL: B9 VL with M4L, S51A, N53K, D92V, N93I, F96P
B15: BIIB-9-1281 (antibody, V domains shown)
VH: QVQLQQWGAGLLKPSETLSLTCAVYGGSFSGYYWSWIRQPPGKGLEWIGEIDHSGSTNYNPSLKSRVTISVDTSKNQFSLKLSSVTAADTAVYYCARTTRSKYYGMDVWGQGTMVTVSS
VL: B12 VL with S10T, V11L, G28S, A50K, Q55E, D92I, F94L, F96I
B16: BIIB-9-605 (antibody, V domains shown)
VH: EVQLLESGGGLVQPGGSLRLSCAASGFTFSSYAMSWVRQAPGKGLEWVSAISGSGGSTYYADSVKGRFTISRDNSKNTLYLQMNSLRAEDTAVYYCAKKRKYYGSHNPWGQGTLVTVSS
VL: B12 VL with S93V
B17: BIIB-9-887 (antibody, V domains shown)
VH: QVQLVQSGAEVKKPGASVKVSCKASGYTFTSYYMVWVRQAPGQGLEWMGIINPSGGSTSYAQKFQGRVTMTRDTSTSTVYMELSSLRSEDTAVYYCARDAEAHWIPGMDVWGQGTTVTVSS
VL: B12 VL with D92S
B18: BIIB-9-479 (antibody, V domains shown)
VH: QVQLQESGPGLVKPSETLSLTCTVSGGSISSYYWSWIRQPPGKGLEWIGSIYYSGSTNYNPSLKSRVTISVDTSKNQFSLKLSSVTAADTAVYYCAREHYGDYPLFDIWGQGTMVTVSS
VL: DIQMTQSPSTLSASVGDRVTITCRASQSISSWLAWYQQKPGKAPKLLIYKASSLESGVPSRFSGSGSGTEFTLTISSLQPDDFATYYCQQYRILSPTFGGGTKVEIK
B19: BIIB-9-581 (antibody, V domains shown)
VH: QVQLVQSGAEVKKPGASVKVSCKASGYTFTSYYMHWVRQAPGQGLEWMGIINPSGGSTSYAQKFQGRVTMTRDTSTSTVYMELSSLRSEDTAVYYCARDPLYYREGYVFDYWGQGTLVTVSS
VL: B12 VL with V11L, G28S, W32Y, A34N, A91S, S93L
B20: BIIB-9-607 (antibody, V domains shown)
VH: QLQLQESGPGLVKPSETLSLTCTVSGGSISSSSYYWGWIRQPPGKGLEWIGSISYSGSTYYNPSLKSRVTISVDTSKNQFSLKLSSVTAADTAVYYCARDRGYSYEDFDLWGRGTLVTVS
VL: B18 VL with Y91A, R92G, I93R, L94Y, S95P, P96L
B21: BIIB-9-1279 (antibody, V domains shown)
VH: B13 VH
VL: B12 VL with D92S, F96P
B22: BIIB-9-592 (antibody, V domains shown)
VH: QLQLQESGPGLVKPSETLSLTCTVSGGSISSNSYYWGWIRQPPGKGLEWIGSIYYSGSTYYNPSLKSRVTISVDTSKNQFSLKLSSVTAADTAVYYCARDSNYDSSGYALYYYGMDVWGQGTTVTVSS
VL: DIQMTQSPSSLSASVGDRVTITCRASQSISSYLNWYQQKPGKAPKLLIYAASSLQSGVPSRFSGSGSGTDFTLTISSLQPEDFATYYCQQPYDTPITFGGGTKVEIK
B23: BIIB-9-461 (antibody, V domains shown)
VH: B13 VH
VL: EIVMTQSPATLSVSPGERATLSCRASQSVSSSLAWYQQKPGQAPRLLIYGASTRATGIPARFSGSGSGTEFTLTISSLQSEDFAVYYCQQHHHWPPTFGGGTKVEIK
B24: BIIB-9-611 (antibody, V domains shown)
VH: B2 VH with D99E, G100V, D101I, S103R, Y105S, A106Y, Y109L, Q112R
VL: B23 VL with S32N, H91D, H92N, H93I, W94H, P96Y
B25: BIIB-9-1278 (antibody, V domains shown)
VH: QVQLVQSGAEVKKPGASVKVSCKASGYTFTSYYMVWVRQAPGQGLEWMGIINPSGGSTSYAQKFQGRVTMTRDTSTSTVYMELSSLRSEDTAVYYCARGPGELGYYLAFDIWGQGTMVTVSS
VL: B23 VL with S32N, H92A, H93N, W94F

What follows are binders tested against free FIXa (activated Factor IX) (UniProt P00740 47-191; P00740 227-461) (assay: BLI).

Binder	Kd
B1	39.9 nM
B2	14.9 nM
B3	7.05 nM
B4	17.5 nM
B5	16.7 nM
B6	8.58 nM
B7	5.46 nM
B8	7.51 nM
B9	15.6 nM
B10	15.6 nM
B11	20.2 nM
B12	11.8 nM
B13	65.6 nM
B14	0.804 nM
B15	16.8 nM
B16	8.63 nM
B17	6.1 nM
B18	58.3 nM
B19	12.9 nM
B20	6.57 nM
B21	40.9 nM
B22	21.7 nM
B23	43.1 nM
B24	18.6 nM
B25	66.2 nM

Reference: patent US20230192896A1 (published 2023)
